Measurements reported in publication PMC6606807.

Columns and labels:
[1] = biological target: PGT145 (human IgG1), as the ligand of CD16; assay: flow cytometry on cells; conditions: read off a plot; for other: Binding (AUC): area under the PGT145 staining curve, parent: est. 12000; for response: parent: est. 540
[2] = biological target: soluble SIVmac239 Env SOSIP.664 trimer, wild type (SIVmac239); assay: cryo-EM 2-D class averages; SIVmac239 Env trimers affinity purified with PGT145, ~6 mg/ml diluted 3:1 into n-dodecyl-beta-D-maltoside, plunge frozen; ~62,000 particles

Substance: SIVmac239 Env WT K179S
- other: Binding (AUC) [1]: 46000
- response [1]: 1500 gMFI

Substance: SIVmac239 Env WT K180S
- other: Binding (AUC) [1]: 260000
- response [1]: 6600 gMFI

Substance: SIVmac239 Env WT K181S
- other: Binding (AUC) [1]: 11000
- response [1]: 450 gMFI

Substance: SIVmac239 Env WT N171Q
- other: Binding (AUC) [1]: 740
- response [1]: 220 gMFI

Substance: SIVmac239 Env WT R177A
- other: Binding (AUC) [1]: 1300
- response [1]: 180 gMFI

Substance: soluble SIVmac239 Env SOSIP.664 trimer, wild type (complex)
- stoichiometry N [2]: 3
